The record followed here is paper PMC3066130, “Molecular Architecture of the Human Mediator–RNA Polymerase II–TFIIF Assembly” (PLoS Biology, 2011).

The target in this assay is T1, human RNA polymerase II (12-subunit enzyme) (human, UniProt P24928 1-1970; P30876 1-1174; P19387 1-275; O15514 1-142; P19388 1-210; P61218 …).
T1 construct: RPB1, largest subunit of human pol II; RPB2, subunit of human pol II; RPB3, subunit of human pol II; RPB4, subunit of human pol II; RPB5, subunit of human pol II; RPB6, subunit of human pol II; RPB7, subunit of human pol II; RPB8, subunit of human pol II; RPB9, subunit of human pol II; RPB10, subunit of human pol II; RPB11, subunit of human pol II; RPB12, subunit of human pol II; The CTD of RPB1 …
The assay can be described thus: co-sedimentation. Particulars: both partners purified.

B1: human TFIIF (Rap74 and Rap30) (complex)
chain 1: MAALGPSSQNVTEYVVRVPKNTTKKYNIMAFNAADKVNFATWNQARLERDLSNKKIYQEEEMPESGAGSEFNRKLREEARRKKYGIVLKEFRPEDQPWLLRVNGKSGRKFKGIKKGGVTENTSYYIFTQCPDGAFEAFPVHNWYNFTPLARHRTLTAEEAEEEWERRNKVLNHFSIMQQRRLKDQDQDEDEEEKEKRGRRKASELRIHDLEDDLEMSSDASDASGEEGGRVPKAKKKAPLAKGGRKKKKKKGSDDEAFEDSDDGDFEGQEVDYMSDGSSSSQEEPESKAKAPQQEEGPKGVDEQSDSSEESEEEKPPEEDKEEEEEKKAPTPQEKKRRKDSSEESDSSEESDIDSEASSALFMAKKKTPPKRERKPSGGSSRGNSRPGTPSAEGGSTSSTLRAAASKLEQGKRVSEMPAAKRLRLDTGPQSLSGKSTPQPPSGKTTPNSGDVQVTEDAVRRYLTRKPMTTKDLLKKFQTKKTGLSSEQTVNVLAQILKRLNPERKMINDKMHFSLKE
chain 2: MAERGELDLTGAKQNTGVWLVKVPKYLSQQWAKASGRGEVGKLRIAKTQGRTEVSFTLNEDLANIHDIGGKPASVSAPREHPFVLQSVGGQTLTVFTESSSDKLSLEGIVVQRAECRPAASENYMRLKRLQIEESSKPVRLSQQLDKVVTTNYKPVANHQYNIEYERKKKEDGKRARADKQHVLDMLFSAFEKHQYYNLKDLVDITKQPVVYLKEILKEIGVQNVKGIHKNTWELKPEYRHYQGEEKSD
notes: Rap74, large subunit of human TFIIF; Rap30, small subunit of human TFIIF; also called dimeric TFIIF complex
For the molecule B1, the binding result is given as “binds”.
